This series deals with preKARS2 (cytosolic precursor of human mitochondrial lysyl-tRNA synthetase) (human, UniProt Q15046-2 1-625). Nature of the series: EMSA; 10 mM Mg2+; EMSA: 20 mM Tris-HCl pH 7.5, 150 mM NaCl, 10 mM MgCl2, 5 mM DTT, 10% glycerol, 0.1 mg/ml BSA, 30 C, 15 min; native 8% PAGE in 0.5x Tris-borate pH 8.3, 5% glycerol. The conditions noted are these: protein: recombinant; tags: C-terminal 6xHis; chain copies: 2; label: 5'-32P; D-arm and F-hairpin with linker. Background: In EMSA bound probe runs differently from free probe, usually more slowly.
preKARS2 (cytosolic precursor of human mitochondrial lysyl-tRNA synthetase), sequence (Q15046 other isoform, or with tags, fused parts or gaps): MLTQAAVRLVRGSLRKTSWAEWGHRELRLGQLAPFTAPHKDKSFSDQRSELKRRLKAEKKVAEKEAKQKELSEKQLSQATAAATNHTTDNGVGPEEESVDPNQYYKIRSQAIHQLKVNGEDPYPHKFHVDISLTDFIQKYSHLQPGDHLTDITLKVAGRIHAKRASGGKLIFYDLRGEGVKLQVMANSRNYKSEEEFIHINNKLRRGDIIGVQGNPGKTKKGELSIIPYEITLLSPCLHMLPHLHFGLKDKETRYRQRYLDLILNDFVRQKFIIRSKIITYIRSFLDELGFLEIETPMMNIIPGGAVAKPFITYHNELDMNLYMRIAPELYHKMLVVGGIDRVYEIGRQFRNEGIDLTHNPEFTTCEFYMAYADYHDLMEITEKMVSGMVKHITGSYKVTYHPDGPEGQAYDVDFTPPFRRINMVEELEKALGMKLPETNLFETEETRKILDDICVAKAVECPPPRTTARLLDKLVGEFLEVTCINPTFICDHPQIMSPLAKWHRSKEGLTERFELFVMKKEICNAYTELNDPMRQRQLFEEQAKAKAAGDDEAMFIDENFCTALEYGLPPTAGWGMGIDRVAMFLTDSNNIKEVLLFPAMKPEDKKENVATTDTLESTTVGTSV

The source of these data is PMC3683045, “Induced tRNA Import into Human Mitochondria: Implication of a Host Aminoacyl-tRNA-Synthetase”.

B1: FD-H (structured_RNA)
RNA: GCGCAAUCGGUAGCGCAGUAAGCACUGUAAAUGAGCCCCCUACAGGGCUCUU
For the molecule B1, the Kd turned out to be 400 ± 50 nM.

B2: FD-L (structured_RNA)
RNA: GCGCAAUCGGUAGCGCCUCUUUACAGUGCUUAGUUCUCGAGCCCCCUACAGGGCUCUU
Turning to B2, the Kd was 400 ± 50 nM.

For orientation: Kd means the equilibrium constant for the complex coming apart.
